# PMC5686206
# Substrate: T1, OCP lacking the NTE comprising the first 20 amino acids (ΔNTE), 6xHis-tagged (Synechocystis sp. PCC 6803) (UniProt P74102)
# T1 sequence: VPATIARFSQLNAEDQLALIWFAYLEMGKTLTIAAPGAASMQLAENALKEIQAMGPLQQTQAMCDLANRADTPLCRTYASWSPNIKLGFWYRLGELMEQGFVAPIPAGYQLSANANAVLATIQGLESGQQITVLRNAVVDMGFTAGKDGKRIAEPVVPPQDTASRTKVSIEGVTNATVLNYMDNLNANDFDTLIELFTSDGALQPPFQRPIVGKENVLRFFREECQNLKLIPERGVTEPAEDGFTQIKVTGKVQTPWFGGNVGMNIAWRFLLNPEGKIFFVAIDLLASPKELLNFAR
binder,measurement,value
"Fluorescence Recovery Protein (FRP), 6xHis-tagged (natural protein) MLQTAEAPWSQAETQSAHALFRKAYQRELDGLLATVQAQASQITQIDDLWKLHDFLSAKRHEIDGKYDDRQSVIIFVFAQLLKEGLVQAEELTFLAADKQSKIKALARL","amplitude a3 (yield) of the slow component (C3) of flash-induced absorption transients at 550 nm, ΔNTE OCP + FRP (FRP to ΔNTE OCP ratio 1.6), 36 °C",76%
same,"time constant t1 of the fast component (C1) of flash-induced absorption transients at 550 nm, ΔNTE OCP + FRP (FRP to ΔNTE OCP ratio 1.6), 36 °C",70.4 µs
